Positions count from the first letter of the chain named. Read-outs that look alike come from different tables or passages of the source.
T1: Nectin-4 on T-47D cells (human, UniProt Q96NY8 32-510)
T1 construct: whole, on cells; endogenous expression; also called T-47D cells positive for Nectin-4 expression
T1 sequence (looked up): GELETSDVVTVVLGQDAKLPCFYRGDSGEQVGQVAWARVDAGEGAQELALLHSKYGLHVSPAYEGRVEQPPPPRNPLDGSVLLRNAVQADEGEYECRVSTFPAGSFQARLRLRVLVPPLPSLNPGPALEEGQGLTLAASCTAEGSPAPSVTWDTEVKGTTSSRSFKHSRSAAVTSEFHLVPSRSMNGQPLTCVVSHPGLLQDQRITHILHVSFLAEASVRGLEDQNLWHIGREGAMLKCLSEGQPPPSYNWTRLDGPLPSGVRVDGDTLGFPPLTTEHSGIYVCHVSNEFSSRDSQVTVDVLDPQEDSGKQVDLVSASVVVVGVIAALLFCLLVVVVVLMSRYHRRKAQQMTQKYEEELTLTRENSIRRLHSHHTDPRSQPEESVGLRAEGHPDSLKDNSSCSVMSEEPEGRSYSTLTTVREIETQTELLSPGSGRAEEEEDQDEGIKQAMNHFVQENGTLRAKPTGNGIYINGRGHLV

T2: hNectin-1 (ACRO, PV1-H5223) (human, UniProt Q15223 31-334)
T2 construct: bought
T2 sequence (looked up): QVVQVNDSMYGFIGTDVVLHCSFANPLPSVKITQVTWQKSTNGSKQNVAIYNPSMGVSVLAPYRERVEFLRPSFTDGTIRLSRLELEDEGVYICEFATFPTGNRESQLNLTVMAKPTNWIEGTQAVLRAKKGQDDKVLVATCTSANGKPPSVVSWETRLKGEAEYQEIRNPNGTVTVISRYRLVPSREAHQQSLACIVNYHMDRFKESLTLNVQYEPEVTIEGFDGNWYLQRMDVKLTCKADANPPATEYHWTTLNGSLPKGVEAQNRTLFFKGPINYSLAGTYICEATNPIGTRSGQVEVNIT

T3: hNectin-2 (ACRO, PV2-H52E2) (human, UniProt Q92692 32-360)
T3 construct: bought
T3 sequence (looked up): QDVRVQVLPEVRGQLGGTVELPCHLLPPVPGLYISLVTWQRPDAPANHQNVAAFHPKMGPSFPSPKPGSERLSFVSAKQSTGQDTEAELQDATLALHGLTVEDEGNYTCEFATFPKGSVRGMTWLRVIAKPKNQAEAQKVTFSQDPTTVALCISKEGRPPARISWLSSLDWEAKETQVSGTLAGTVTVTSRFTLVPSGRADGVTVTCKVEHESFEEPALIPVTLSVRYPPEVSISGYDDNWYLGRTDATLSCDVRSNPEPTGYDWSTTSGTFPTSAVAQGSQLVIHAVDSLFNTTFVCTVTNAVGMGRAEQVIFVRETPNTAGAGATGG

B1: antibody 1F3 (antibody, human IgG1, kappa, V domains shown)
VH: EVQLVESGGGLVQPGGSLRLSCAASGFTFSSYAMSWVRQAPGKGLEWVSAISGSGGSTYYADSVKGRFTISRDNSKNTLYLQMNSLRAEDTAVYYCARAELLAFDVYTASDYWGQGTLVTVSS
VL: DIQMTQSPSSLSASVGDRVTITCRASQGISSYLAWYQQKPGKAPKLLIYAASSLQSGVPSRFSGSGSGTDFTLTISSLQPEDFATYYCQQHYTTPPTFGQGTKVEIKR
notes: intact antibody
B2: antibody 10F4 (antibody, human IgG1, kappa, V domains shown)
VH: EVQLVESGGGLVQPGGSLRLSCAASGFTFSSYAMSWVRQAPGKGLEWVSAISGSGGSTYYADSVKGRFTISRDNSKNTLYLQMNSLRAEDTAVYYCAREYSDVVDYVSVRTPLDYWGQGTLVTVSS
VL: B1 VL
notes: intact antibody
B3: antibody 1G8 (antibody, human IgG1, kappa, V domains shown)
VH: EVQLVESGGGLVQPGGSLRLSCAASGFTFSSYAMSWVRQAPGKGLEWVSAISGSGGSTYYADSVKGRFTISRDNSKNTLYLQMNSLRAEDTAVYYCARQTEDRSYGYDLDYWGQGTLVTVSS
VL: B1 VL
notes: intact antibody
B4: reference antibody ASG-22 (antibody, human IgG1, kappa, V domains shown)
VH: EVQLVESGGGLVQPGGSLRLSCAASGFTFSSYNMNWVRQAPGKGLEWVSYISSSSSTIYYADSVKGRFTISRDNAKNSLSLQMNSLRDEDTAVYYCARAYYYGMDVWGQGTLVTVSS
VL: B1 VL with L11V, S31G, Y32W, L46F, S53T, H91A, Y92N, T93S, T94F, Q100G
B5: antibody 1F3-1G11 (antibody, human IgG1, kappa, V domains shown)
VH: EVQLVESGGGLVQPGGSLRLSCAASGYSFTGYGMSWVRQAPGKGLEWVSGISPSGGTIGYADSVKGRFTISRDNSKNTLYLQMNSLRAEDTAVYYCARAELLAFDVYTASDYWGQGTLVTVSS
VL: B1 VL
notes: intact antibody
B6: antibody 10F4-5 (antibody, human IgG1, kappa, V domains shown)
VH: EVQLVESGGGLVQPGGSLRLSCAASGFIFDGYDMSWVRQAPGKGLEWVSVIKDHGGYKFYADSVKGRFTISRDNSKNTLYLQMNSLRAEDTAVYYCAREYSDVVDYVSVRTPLDYWGQGTLVTVSS
VL: B1 VL
notes: intact antibody
B7: antibody 3A10 (antibody, human IgG1, kappa, V domains shown)
VH: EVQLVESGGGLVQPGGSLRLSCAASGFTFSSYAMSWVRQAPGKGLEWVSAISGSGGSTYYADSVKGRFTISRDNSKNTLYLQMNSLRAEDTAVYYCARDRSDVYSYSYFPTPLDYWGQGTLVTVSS
VL: B1 VL
notes: intact antibody
B8: antibody 10F4-3 (antibody, human IgG1, kappa, V domains shown)
VH: EVQLVESGGGLVQPGGSLRLSCAASGFSFGDFAMSWVRQAPGKGLEWVSVIDGHTAYNSYADSVKGRFTISRDNSKNTLYLQMNSLRAEDTAVYYCAREYSDVVDYVSVRTPLDYWGQGTLVTVSS
VL: B1 VL
notes: intact antibody
B9: antibody 1F3-1B1 (antibody, human IgG1, kappa, V domains shown)
VH: B5 VH with Y27F, S28T, T30G, G31T, S52K, S54G, G55D, G56S, I58T, G59Y
VL: B1 VL
notes: intact antibody
B10: antibody 1F3-1E1 (antibody, human IgG1, kappa, V domains shown)
VH: B5 VH with Y27F, T30D, G31D, G33A, G50I, S52Y, S54T, G56S, I58N, G59Y
VL: B1 VL
notes: intact antibody
B11: antibody 1F3-2F3 (antibody, human IgG1, kappa, V domains shown)
VH: EVQLVESGGGLVQPGGSLRLSCAASGFNFSDYGMSWVRQAPGKGLEWVSRIDWDGGNTRYADSVKGRFTISRDNSKNTLYLQMNSLRAEDTAVYYCARAELLAFDVYTASDYWGQGTLVTVSS
VL: B1 VL
notes: intact antibody
B12: antibody 10F4-1 (antibody, human IgG1, kappa, V domains shown)
VH: EVQLVESGGGLVQPGGSLRLSCAASGDSFTNYWMSWVRQAPGKGLEWVSGISQGGSYAYYADSVKGRFTISRDNSKNTLYLQMNSLRAEDTAVYYCAREYSDVVDYVSVRTPLDYWGQGTLVTVSS
VL: B1 VL
notes: intact antibody
B13: antibody 10A4 (antibody, human IgG1, kappa, V domains shown)
VH: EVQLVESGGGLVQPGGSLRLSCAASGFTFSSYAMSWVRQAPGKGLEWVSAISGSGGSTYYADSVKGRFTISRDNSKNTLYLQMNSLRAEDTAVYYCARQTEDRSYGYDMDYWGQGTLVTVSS
VL: B1 VL
notes: intact antibody
B14: antibody 1F3-2B1 (antibody, human IgG1, kappa, V domains shown)
VH: B5 VH with S28N, T30D, G31N, G33A, S52K, S54D, G55S, G56A, I58T, G59Y
VL: B1 VL
notes: intact antibody
B15: antibody 1B4 (antibody, human IgG1, kappa, V domains shown)
VH: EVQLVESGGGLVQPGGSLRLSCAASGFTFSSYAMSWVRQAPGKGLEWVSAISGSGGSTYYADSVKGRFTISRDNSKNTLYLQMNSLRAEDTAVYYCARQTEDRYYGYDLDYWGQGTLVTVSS
VL: B1 VL
notes: intact antibody
B16: antibody 1F3-2E8 (antibody, human IgG1, kappa, V domains shown)
VH: B5 VH with T30S, G31D, G50W, G55K, T57S, I58A, G59S
VL: B1 VL
notes: intact antibody

Experiments:
[1] = target: T1, Nectin-4 on T-47D cells; test: FACS on T-47D cells, 10 µg/mL on ice, 0 h point of the endocytosis assay
Procedure: (§1) In this assay, the relative amount of antibodies remaining on the cell surface after co-incubation at 37° C. for a certain period of time was detected by FACS to reflect the endocytosis efficiency. The procedures are briefly described as follows: T-47D cells (human ductal breast cancer cells, derived from the Cell Bank of Chinese Academy of Sciences, Cat. No. TCHu 87); the antibodies were adjusted to 10 μg/mL and co-incubated with the cells on ice for 1 h; the cells were washed 3 times with pre-cooled PBS, and then placed at 37° C. and incubated for 0 h, 2 h and 4 h; 0.2% N₃Na was added to stop the endocytosis reaction; the cells were washed with PBS thrice, followed by the addition of the PE-labeled anti-human Fc secondary antibody (Invitrogen 12-4998-82); the cells were incubated at 4° C. for 30 min; the red fluorescence signal was detected on a flow cytometer.

[2] = target: T2, hNectin-1 (ACRO, PV1-H5223); test: ELISA, antigen coated, HRP-labeled anti-human-Kappa secondary antibody
Procedure: (§2) The binding activity of intact antibodies was detected by ELISA. The procedures are briefly described as follows: the hNectin-4-His antigen protein of Example 1 was immobilized at a concentration of 1 μg/mL on a plate; the plate was blocked with skimmed milk powder overnight, and then, serially diluted antibodies of interest were added for co-incubation (antibodies in Table 9 were serially 2-fold diluted from 2 μg/mL; antibodies in Tables 10 and 11 were serially 3-fold diluted from 10 μg/mL) at room temperature for 2 h; then an HRP-labeled anti-human-kappa (Sigma, A7164) secondary antibody was added for co-incubation for 1 h, followed by the addition of TMB (Huzhou InnoReagents, TMB-S-001) for chromogenic reaction, and the reaction was stopped with 0.1 M H₂SO₄; after the absorbance at OD450 was read on a microplate reader, the binding EC₅₀ value for each antibody was calculated by four-parameter fitting, and the binding activities of the antibodies were compared.
(§3) In this assay, the binding of different antibodies to human Nectin-4 homologous proteins hNectin-1 (ACRO, PV1-H5223), hNectin-2 (ACRO, PV2-H52E2), hNectin-3 (ACRO, PV3-H52E4), and hNectin-4-His was detected by ELISA to determine the specificity of the antibodies. For the methodology and procedures, see Example 4. Antigens of interest ([…]) were immobilized; after blocking, serially diluted antibodies (2-fold serially diluted from […]) were added, and HRP-labeled anti-human-Kappa secondary antibody was added for chromogenic reaction.

[3] = target: T3, hNectin-2 (ACRO, PV2-H52E2); test: as above
Procedure: as §2, §3

[4] = target: T1, Nectin-4 on T-47D cells; test: FACS on T-47D cells, 10 µg/mL on ice, 0 h point of the endocytosis assay; remark: listed apart in the source
Procedure: as §1

Binder	MFI (0 h) [1] [MFI]	binding result [2]	binding result [3]	MFI (0 h) [4] [MFI]
B1	121000	no binding (tested: 2000 ng/mL)	no binding (tested: 2000 ng/mL)	
B2	104000	no binding (tested: 2000 ng/mL)	no binding (tested: 2000 ng/mL)	
B3	105000	no binding (tested: 2000 ng/mL)	no binding (tested: 2000 ng/mL)	
B4	107000			58600
B5				60500
B6				63400
B7	105000			
B8				61200
B9				65300
B10				73400
B11				69000
B12				58600
B13	107000			
B14				59400
B15	108000			
B16				58200
